Two molecules from article PMC9469209, “Structural basis for activation of Arf1 at the Golgi complex” (Cell reports, 2022) can be followed below.

B1: Gea2 (full-length Saccharomyces cerevisiae Gea2) (enzyme, UniProt P39993 1-1459, looked up)
chain: MSDREFVTVDPVTIIIKECINLSTAMRKYSKFTSQSGVAALLGGGSEIFSNQDDYLAHTFNNLNTNKHNDPFLSGFIQLRLMLNKLKNLDNIDSLTILQPFLLIVSTSSISGYITSLALDSLQKFFTLNIINESSQNYIGAHRATVNALTHCRFEGSQQLSDDSVLLKVVFLLRSIVDSPYGDLLSNSIIYDVLQTILSLACNNRRSEVLRNAAQSTMIAVTVKIFSKLKTIEPVNVNQIYINDESYTNDVLKADTIGTNVESKEEGSQEDPIGMKVNNEEAISEDDGIEEEHIHSEKSTNGAEQLDIVQKTTRSNSRIQAYADDNYGLPVVRQYLNLLLSLIAPENELKHSYSTRIFGLELIQTALEISGDRLQLYPRLFTLISDPIFKSILFIIQNTTKLSLLQATLQLFTTLVVILGNNLQLQIELTLTRIFSILLDDGTANNSSSENKNKPSIIKELLIEQISILWTRSPSFFTSTFINFDCNLDRADVSINFLKALTKLALPESALTTTESVPPICLEGLVSLVDDMFDHMKDIDREEFGRQKNEMEILKKRDRKTEFIECTNAFNEKPKKGIPMLIEKGFIASDSDKDIAEFLFNNNNRMNKKTIGLLLCHPDKVSLLNEYIRLFDFSGLRVDEAIRILLTKFRLPGESQQIERIIEAFSSAYCENQDYDPSKISDNAEDDISTVQPDADSVFILSYSIIMLNTDLHNPQVKEHMSFEDYSGNLKGCCNHKDFPFWYLDRIYCSIRDKEIVMPEEHHGNEKWFEDAWNNLISSTTVITEIKKDTQSVMDKLTPLELLNFDRAIFKQVGPSIVSTLFNIYVVASDDHISTRMITSLDKCSYISAFFDFKDLFNDILNSIAKGTTLINSSHDDELSTLAFEYGPMPLVQIKFEDTNTEIPVSTDAVRFGRSFKGQLNTVVFFRIIRRNKDPKIFSKELWLNIVNIILTLYEDLILSPDIFPDLQKRLKLSNLPKPSPEISINKSKESKGLLSTFASYLKGDEEPTEEEIKSSKKAMECIKSSNIAASVFGNESNITADLIKTLLDSAKTEKNADNSRYFEAELLFIIELTIALFLFCKEEKELGKFILQKVFQLSHTKGLTKRTVRRMLTYKILLISLCADQTEYLSKLINDELLKKGDIFTQKFFATNQGKEFLKRLFSLTESEFYRGFLLGNENFWKFLRKVTAMKEQSESIFEYLNESIKTDSNILTNENFMWVLGLLDEISSMGAVGNHWEIEYKKLTESGHKIDKENPYKKSIELSLKSIQLTSHLLEDNNDLRKNEIFAIIQALAHQCINPCKQISEFAVVTLEQTLINKIEIPTNEMESVEELIEGGLLPLLNSSETQEDQKILISSILTIISNVYLHYLKLGKTSNETFLKILSIFNKFVEDSDIEKKLQQLILDKKSIEKGNGSSSHGSAHEQTPESNDVEIEATAPIDDNTDDDNKPKLSDVEKD
notes: Gea2, guanine nucleotide exchange factor for Arf1, Saccharomyces cerevisiae, full length; also called Arf-GEF Gea2; source: Pichia pastoris (KM71H), overexpressed, purified (Ni-NTA, MonoQ, TEV cleavage, Superdex 200 Increase SEC); not shown: His6, N-terminal, cleaved
B2: ΔN17-Arf1 (S. cerevisiae Arf1 lacking its N-terminal amphipathic helix) (domain or fragment, UniProt P11076 18-181, looked up)
chain: MRILMVGLDGAGKTTVLYKLKLGEVITTIPTIGFNVETVQYKNISFTVWDVGGQDRIRSLWRHYYRNTEGVIFVVDSNDRSRIGEAREVMQRMLNEDELRNAAWLVFANKQDLPEAMSAAEITEKLGLHSIRNRPWFIQATCATSGEGLYEGLEWLSNSLKNST
notes: Arf1 GTPase, Saccharomyces cerevisiae, truncated form lacking the N-terminal 17 residues (ΔN17); In the complex Arf1 is nucleotide-free (trapped with alkaline phosphatase); also called nucleotide-free Arf1; Arf1-NF; source: E. coli Rosetta2, purified as previously described (Richardson and Fromme, 2015; Richardson et al., 2012)

Series [1] deals with the molecule itself. Nature of the series: cryo-EM structure; Gea2 alone, ~5 mg/mL in SEC buffer (20 mM Tris pH 8.0, 150 mM NaCl, 1 mM DTT) with 2 mM fluorinated fos-choline-8; three dimeric conformations (closed/closed, closed/open, open/open).
For series [2], the target named is B1. Nature of the series: cryo-EM structure; Gea2-Arf1 complex: 1 mg Gea2, 5 mg ΔN17-Arf1 and 250 units alkaline phosphatase at 4°C overnight, then SEC (20 mM Tris pH 8.0, 300 mM NaCl, 1 mM DTT); nucleotide-free activation intermediate; ~5 mg/mL with 2 mM fluorinated fos-choline-8. The settings on record: both partners purified.

In the case of B1, the “stoichiometry N” value in series [1] is 2.
Take B2: in series [2], the binding result is “binds”.
